How the values were obtained:
[1] = target: DC-SIGN with its C-terminal 16 amino acids truncated, soluble extracellular segment, Q274C, labeled with Atto-594 (UniProt Q9NNX6); test: dynamic light scattering; purified lectins in solution; hydrodynamic diameters ~14 nm; identity also checked by HRMS and UV-vis spectroscopy
[2] = target: the molecule itself; test: as above

| stoichiometry N [1] | Molecule | stoichiometry N [2] |
| --- | --- | --- |
| 4 | DC-SIGN with its C-terminal 16 amino acids truncated, soluble extracellular segment, Q274C, labeled with Atto-594 (from UniProt Q9NNX6 59-404) (domain or fragment) |  |
|  | DC-SIGNR, soluble extracellular segment, R287C, labeled with Atto-594 (domain or fragment, UniProt Q9H2X3 71-399, looked up, maleimide-modified Atto-594 dye on the cysteine introduced at R287 (labeling efficiency ~85% per monomer), DC-SIGNR, soluble extracellular segment; also called a DC-SIGN related lectin found on endothelial cells; source: expressed, purified) QVSKVPSSLSQEQSEQDAIYQNLTQLKAAVGELSEKSKLQEIYQELTQLKAAVGELPEKSKLQEIYQELTRLKAAVGELPEKSKLQEIYQELTRLKAAVGELPEKSKLQEIYQELTRLKAAVGELPEKSKLQEIYQELTELKAAVGELPEKSKLQEIYQELTQLKAAVGELPDQSKQQQIYQELTDLKTAFERLCRHCPKDWTFFQGNCYFMSNSQCNWHDSVTACQEVRAQLVVIKTAEEQNFLQLQTSRSNRFSWMGLSDLNQEGTWQWVDGSPLSPSFQRYWNSGEPNNSGNEDCAEFSGSGWNDNRCDVDNYWICKKPAACFRDE | 4 |
|  | DC-SIGN, soluble extracellular segment, Q274C, labeled with Atto-594 (domain or fragment, UniProt Q9NNX6 59-404, looked up, maleimide-modified Atto-594 dye on the cysteine introduced at Q274 (labeling efficiency ~85% per monomer), DC-SIGN, soluble extracellular segment; also called dendritic-cell-specific intercellular adhesion molecule-3-grabbing nonintegrin; source: expressed, purified) QVSKVPSSISQEQSRQDAIYQNLTQLKAAVGELSEKSKLQEIYQELTQLKAAVGELPEKSKLQEIYQELTRLKAAVGELPEKSKLQEIYQELTWLKAAVGELPEKSKMQEIYQELTRLKAAVGELPEKSKQQEIYQELTRLKAAVGELPEKSKQQEIYQELTRLKAAVGELPEKSKQQEIYQELTQLKAAVERLCHPCPWEWTFFQGNCYFMSNSCRNWHDSITACKEVGAQLVVIKSAEEQNFLQLQSSRSNRFTWMGLSDLNQEGTWQWVDGSPLLPSFKQYWNRGEPNNVGEEDCAEFSGNGWNDDKCNLAKFWICKKSAASCSRDEEQFLSPAPATPNPPPA | 4 |

— article PMC9614721, “Polyvalent Glycan Quantum Dots as a Multifunctional Tool for Revealing Thermodynamic, Kinetic, and Structural Details of Multivalent Lectin–Glycan Interactions” (ACS Applied Materials & Interfaces, 2022)
